Source: the supplement of paper PMC10126150
± gives the standard deviation of the averaged measurements.

System: ATP
Test: switch fluorescence ratio, 500 uM ATP over buffer (Cy3 cluster intensity, sum of 5 cycles each) (fold (ratio)); higher = stronger signal-on switching upon ATP binding; sequences stand for … in TCGTCGGCAGCGTCAGATGTGTATAAGAGACAGTTTTTTTTTTTTTTTTTTTTTTTTT…TC
Conditions: aptamer strand: ATP DNA aptamer (quencher-CACCTGGGGGAGTATTGCGGAGGAAGG + anchor), 100 nM annealed; ATP concentration: 500 uM
In short: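 Per cluster, summed Cy3 intensity from the target cycles was divided by that from the buffer cycles to give the fluorescence ratio, then averaged per switch-domain sequence. Clusters outside 100-1000 RFU were excluded. The Cy3-labelled switching-strand clusters, on a modified Illumina MiSeq flow-cell, were annealed to 100 nM quencher-labelled ATP aptamer and imaged in selection buffer, then after 15 min with 500 uM ATP at 22 °C, for five cycles with NaOH stripping and re-annealing between them.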
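Note: ATP exposure 15 min at 22 °C before imaging.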

| Sequence | switch fluorescence ratio |
| --- | --- |
| ATGAGAATTA | 1.006 ± 0.0023 |
| CGTTGGGAGC | 1 ± 0.019 |
| CGTGCAGTTC | 1.15 ± 0.036 |
| TAATCGCCTG | 0.981 ± 0.034 |
| AATTTGTGCG | 0.991 ± 0.012 |
| ATGTTGATAT | 1.01 ± 0.045 |
| CTTGATACAG | 1.037 ± 0.0026 |
| TGATGATATA | 1.02 ± 0.013 |
| GCCAATTACG | 1.11 ± 0.03 |
| TACAGGTTGG | 1.03 ± 0.037 |
| TTTATGAACT | 1.02 ± 0.042 |
| TTTAAGAGCT | 0.997 ± 0.015 |
| TAAGTTGGTA | 0.9521 ± 0.0054 |
| TTTTGGGGAG | 1.02 ± 0.029 |
| TCGTGTGGAG | 1.01 ± 0.033 |
| TTTTGGAGTT | 0.998 ± 0.035 |
| TCAACCGTTT | 1.02 ± 0.065 |
| AGGGTGACAT | 0.999 ± 0.013 |
| GAATACGGTT | 1.26 ± 0.44 |
| TGAACGACAG | 1.031 ± 0.0093 |
| TTTCTGGGGA | 0.991 ± 0.034 |
| AAGGGCAGGT | 1.01 ± 0.03 |
| GGGTCAAGCG | 0.943 ± 0.017 |
| TTGTGAACTT | 0.9794 ± 0.0046 |
| GATTATTCTG | 0.966 ± 0.039 |

| Sequence | switch fluorescence ratio |
| --- | --- |
| ATTATGGCGT | 0.999 ± 0.013 |
| CTTTATATGG | 0.96 ± 0.046 |
| AAAATATTCG | 1.01 ± 0.011 |
| ATAGTGATAC | 3.28 ± 0.057 |
| GGTCTACATT | 1.01 ± 0.032 |
| AAGGCGGGGT | 0.997 ± 0.033 |
| CATTGAATCT | 1.02 ± 0.02 |
| AGGGGCTTTG | 1.03 ± 0.032 |
| CGGTCGGGGG | 0.999 ± 0.032 |
| GAAATTTTTT | 1 ± 0.034 |
| TACTTAGGTG | 1.17 ± 0.12 |
| TTAGTATTTA | 1.01 ± 0.056 |
| TTGAAAGGGG | 0.996 ± 0.083 |
| GCTTGTAGGG | 0.969 ± 0.011 |
| CACGGCACGA | 1.36 ± 0.073 |
| CTTATAGCGC | 1.007 ± 0.0066 |
| CATGTTGGCT | 1.012 ± 0.0039 |
| CGAGGGTCTC | 1.01 ± 0.029 |
| CGTTCATTTG | 0.993 ± 0.028 |
| AATGGCAGTC | 1.03 ± 0.05 |
| AACAGTGAGC | 1.039 ± 0.0056 |
| AAAGAGTCCT | 1.01 ± 0.029 |
| AATAGGGTG | 1.08 ± 0.07 |
| CCGGTTCAGG | 1.05 ± 0.016 |
| CGTCTGTCTC | 1.045 ± 0.005 |

| Sequence | switch fluorescence ratio |
| --- | --- |
| TTTTTGTTT | 0.988 ± 0.01 |
| AGTCGGAACG | 0.963 ± 0.015 |
| CTTAGAGCGG | 1.01 ± 0.022 |
| GCTCCGGCGG | 1.24 ± 0.045 |
| CCAGTACCTT | 1.09 ± 0.03 |
| TGAGGGGTGG | 0.961 ± 0.038 |
| CGGGTTTGTG | 0.973 ± 0.032 |
| ATAAAAAACT | 0.984 ± 0.01 |
| CCGCTAGTGG | 1.196 ± 0.0036 |
| AACCTGGGGA | 1.12 ± 0.19 |
| CGTAAAATGA | 0.992 ± 0.022 |
| CGTTTATTTT | 1.01 ± 0.03 |
| ATTTCATGTG | 0.9853 ± 0.0035 |
| ACTAAATATG | 1.05 ± 0.046 |
| GGGTTAAAGA | 1 ± 0.017 |
| TTTATGCCAG | 0.946 ± 0.053 |
| AAGTTTTGGT | 0.964 ± 0.019 |
| CCTTTTGGTG | 1.38 ± 0.44 |
| TTTTTGTGTA | 0.969 ± 0.012 |
| AGCCCGGGCA | 0.956 ± 0.015 |
| TATCGCGAAT | 1.01 ± 0.021 |
| GCCTCAGACA | 1.047 ± 0.0092 |
| GGTAGCAGCG | 1.05 ± 0.059 |
| CTTAGTAGTT | 1.01 ± 0.015 |
| GGAGTAAAGA | 0.992 ± 0.037 |

| Sequence | switch fluorescence ratio |
| --- | --- |
| CATCTTCGCT | 1.0246 ± 7.4e-05 |
| GATTGAATTT | 0.989 ± 0.032 |
| AATGCTTTGG | 1.007 ± 0.0095 |
| GAGTAGGCTA | 0.973 ± 0.035 |
| TATGTTATTA | 0.984 ± 0.039 |
| AGTTCCCCTT | 1.052 ± 0.0024 |
| TACTCATTGT | 1.03 ± 0.021 |
| TCGTTCGGCA | 1.06 ± 0.032 |
| ATCCTATTTG | 1.0056 ± 0.0008 |
| CGACGTGGGA | 1.042 ± 0.0055 |
| TAAAACAGCG | 1.01 ± 0.012 |
| GCCTTAACGG | 1.01 ± 0.021 |
| AGATAATTCT | 1.02 ± 0.013 |
| TATATGGTGT | 1.02 ± 0.024 |
| CACAAGGCGG | 1.03 ± 0.041 |
| AAAGGTATTC | 1 ± 0.02 |
| GCGGAAGATC | 1.03 ± 0.021 |
| TATTGATAAA | 0.991 ± 0.058 |
| GCGCTCCGGG | 1.09 ± 0.072 |
| TAGACGTCGT | 0.965 ± 0.024 |
| ACTGGGTGGC | 1.01 ± 0.029 |
| TTATAAAAAC | 0.982 ± 0.076 |
| ATCCTCGGCC | 1.52 ± 0.039 |
| GGGTTTTGTA | 0.974 ± 0.018 |
| TTTACGGTGC | 1.25 ± 0.15 |

| Sequence | switch fluorescence ratio |
| --- | --- |
| AGTTTTATTG | 0.993 ± 0.026 |
| TATTCCGTCC | 1.1 ± 0.049 |
| AATTTACTGT | 1.01 ± 0.023 |
| AGGGTTACTG | 1.04 ± 0.068 |
| AATGTTATAG | 1.008 ± 0.00014 |
| CCGGGGGGGC | 1.32 ± 0.66 |
| CTTTTAGTAG | 0.974 ± 0.015 |
| TTCATCGTCT | 1.01 ± 0.042 |
| AGGTAATGAA | 0.967 ± 0.023 |
| GACCGTTGGA | 0.987 ± 0.037 |
| ATGGGCTCAG | 1.005 ± 0.0033 |
| GGGCTGGAGG | 0.983 ± 0.025 |
| GAGGATGGGA | 0.98 ± 0.022 |
| TGGCTTAGTT | 0.9956 ± 0.0026 |
| ATTTATTCTA | 0.976 ± 0.036 |
| TCCCTGGGGG | 1.08 ± 0.11 |
| TTTTGTGGTT | 1.02 ± 0.065 |
| GGGGTAGACA | 1 ± 0.031 |
| CCAAAAGGTT | 1.01 ± 0.017 |
| ACCCTGCAGA | 1.06 ± 0.0064 |
| TCGGTGTCGG | 0.98 ± 0.037 |
| ACGAAAATTT | 1.05 ± 0.13 |
| CAGGTTGTTC | 1.005 ± 0.0011 |
| TCTCAAGGCG | 1.03 ± 0.0089 |
| TACATTAGGC | 1.05 ± 0.018 |

| Sequence | switch fluorescence ratio |
| --- | --- |
| ACAGTCTGCG | 0.962 ± 0.037 |
| TTGCGCCGC | 1.138 ± 0.0037 |
| GAAGTGAGCG | 1.028 ± 0.0063 |
| CTGCCAATGG | 1.99 ± 0.053 |
| GACACACCCG | 1.13 ± 0.046 |
| AGGGGTTGTG | 1 ± 0.024 |
| GAATGGGTTG | 1.01 ± 0.028 |
| AAAGAGTTTT | 1.02 ± 0.071 |
| AGTAGATGGC | 1.02 ± 0.053 |
| CGAATGTTCG | 0.998 ± 0.035 |
| TGGGTTCGAT | 1.02 ± 0.015 |
| GTTTGATGTC | 1 ± 0.1 |
| CTGGGGACCT | 1.1 ± 0.066 |
| TAAAAAGTAG | 0.992 ± 0.024 |
| CAAGCGGACT | 1.06 ± 0.049 |
| CTTCGAAGTT | 0.98 ± 0.045 |
| ATTTTTGGGT | 0.994 ± 0.031 |
| TAAGGAGTTT | 0.972 ± 0.016 |
| GAGGGGGGGG | 1.01 ± 0.039 |
| AAGCTAGTAA | 0.865 ± 0.012 |
| CGGAGTGGGG | 1.01 ± 0.012 |
| ATAAGGGCCA | 1.01 ± 0.036 |
| ACCAAGTTGG | 0.993 ± 0.016 |
| AGCACGAGGG | 0.9816 ± 0.0093 |
| TTTATTTCTG | 0.959 ± 0.02 |

| Sequence | switch fluorescence ratio |
| --- | --- |
| ATGTGGTCGC | 0.9972 ± 0.0016 |
| CGGCAGTATG | 1.02 ± 0.011 |
| CGAGTATTAC | 1.09 ± 0.04 |
| GTTGCGACGG | 1 ± 0.028 |
| CATAACGTAC | 1.97 ± 0.21 |
| GACACGAGGT | 1.013 ± 0.0084 |
| AGGATGGTAA | 1 ± 0.02 |
| CCCATGTTAA | 0.993 ± 0.018 |
| TTCTGTAGCG | 1.06 ± 0.13 |
| TTTCTTGCTG | 1.07 ± 0.047 |
| CGGAAGTGTG | 0.981 ± 0.039 |
| TGGGTGAAGC | 0.991 ± 0.059 |
| AAGGTCTGAG | 1.02 ± 0.043 |
| TATGGAAGCA | 0.994 ± 0.014 |
| AAAGATTAAA | 0.9918 ± 0.0056 |
| AGCCGCTTCA | 0.9803 ± 0.0053 |
| ACTGTCGGGC | 1.03 ± 0.025 |
| AGTGTGGGGT | 0.979 ± 0.054 |
| TTTTGTGGAA | 0.998 ± 0.027 |
| AGGTTTTGGA | 0.98 ± 0.021 |
| TATGGTCGCT | 1.03 ± 0.041 |
| GTTTTCCGGA | 0.996 ± 0.05 |
| CTTGGGTTCT | 1 ± 0.012 |
| ACGGGGCGTT | 1.01 ± 0.012 |
| AATTAGTTCG | 0.98 ± 0.02 |

| Sequence | switch fluorescence ratio |
| --- | --- |
| GTTGCGGGCG | 0.991 ± 0.06 |
| ATGGGTCAAT | 1 ± 0.014 |
| TGGAAGGGGC | 1.04 ± 0.035 |
| GGATAGGGGG | 0.9963 ± 0.0012 |
| TTAGGGGGAC | 1 ± 0.041 |
| AGGGGGCCGT | 0.982 ± 0.042 |
| GGTGGTGGCT | 1.04 ± 0.079 |
| AATTAATGGA | 0.997 ± 0.036 |
| TGTTGCAAGT | 0.976 ± 0.017 |
| TTAGGAAA | 0.984 ± 0.044 |
| TAGGGGGTCA | 1 ± 0.022 |
| CAATGTGGCG | 0.922 ± 0.038 |
| ATTTTTGCGC | 1.03 ± 0.055 |
| TCATCGGGGC | 1.03 ± 0.071 |
| GAATGTTCTT | 1.0298 ± 6.1e-05 |
| AGGAGGGCAG | 1.013 ± 0.0059 |
| ACTTTTTATG | 0.991 ± 0.035 |
| CGCATGTTTT | 1.06 ± 0.1 |
| GGCCTATCAC | 1.016 ± 0.0078 |
| TTTTAAATCT | 1.03 ± 0.019 |
| CAGGAGTCGG | 1.01 ± 0.014 |
| TAATGGGGAG | 0.993 ± 0.014 |
| TATACATGCG | 1.04 ± 0.025 |
| GCCTTCAAGC | 1.04 ± 0.054 |
| AGGAGGTGCT | 0.965 ± 0.067 |
